Results taken from patent US20250243277A1 (AVACTA LIFE SCIENCES, published 2025).

Molecular target: T1, human PD-L1-Fc (R&D Systems) (human, UniProt Q9NZQ7 19-239)
T1 construct: Bought from R&D Systems; Biotinylated in-house for the phage selection; also called huPD-L1-Fc; human PD-L1-Fc antigen; not shown: Fc part of the bought fusion
Assay: soluble Affimer ELISA

T1 sequence (Q9NZQ7 19-239 limits assumed): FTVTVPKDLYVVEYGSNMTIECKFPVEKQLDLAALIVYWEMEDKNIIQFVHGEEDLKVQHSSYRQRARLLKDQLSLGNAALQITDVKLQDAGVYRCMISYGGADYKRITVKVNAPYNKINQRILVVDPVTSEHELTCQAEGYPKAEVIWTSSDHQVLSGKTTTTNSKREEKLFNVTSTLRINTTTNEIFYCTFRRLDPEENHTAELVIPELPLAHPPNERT

| Binder | binding result |
| --- | --- |
| Clone 238 (designed binder, His-tagged) MIPGGLSEAKPATPEIQEIVDKVKPQLEEKTGETYGKLEAVQYKTQVVRHKGLWQFEGTNYYIKVRAGDNKYMHLKVFKSLSHQPYRATIEDLVLTGYQVDKNKDDELTGF | binds |
| Clone 232 (designed binder, His-tagged) MIPGGLSEAKPATPEIQEIVDKVKPQLEEKTGETYGKLEAVQYKTQVVTKHSATFFHGTNYYIKVRAGDNKYMHLKVFKSLIGNGQYWYREDLVLTGYQVDKNKDDELTGF | binds |
| Clone 234 (designed binder, His-tagged) MIPGGLSEAKPATPEIQEIVDKVKPQLEEKTGETYGKLEAVQYKTQVVRNSGVWEFEGTNYYIKVRAGDNKYMHLKVFKSLGKYKTNWYFEDLVLTGYQVDKNKDDELTGF | binds |
| Clone 226 (designed binder, His-tagged) MIPGGLSEAKPATPEIQEIVDKVKPQLEEKTGETYGKLEAVQYKTQVVYKHDDEYGFGTNYYIKVRAGDNKYMHLKVFKSLKWTNRANKPEDLVLTGYQVDKNKDDELTGF | binds |
| Clone 228 (designed binder, His-tagged) MIPGGLSEAKPATPEIQEIVDKVKPQLEEKTGETYGKLEAVQYKTQVVVWTSDDAWQGTNYYIKVRAGDNKYMHLKVFKSLFKFEIYKHTEDLVLTGYQVDKNKDDELTGF | binds |
| Clone 221 (designed binder, His-tagged) MIPGGLSEAKPATPEIQEIVDKVKPQLEEKTGETYGKLEAVQYKTQVVIQDVDWRLWGTNYYIKVRAGDNKYMHLKVFKSLVPSDWSKTIEDLVLTGYQVDKNKDDELTGF | binds |
| Clone 251 (designed binder, His-tagged) MIPGGLSEAKPATPEIQEIVDKVKPQLEEKTGETYGKLEAVQYKTQVVATDQDWRKWGTNYYIKVRAGDNKYMHLKVFKSLIPLNWQLQEEDLVLTGYQVDKNKDDELTGF | binds |
| Clone 23 (designed binder, His-tagged) MIPGGLSEAKPATPEIQEIVDKVKPQLEEKTGETYGKLEAVQYKTQVVYWEHHHYGFGTNYYIKVRAGDNKYMHLKVFKSLAWPEIDPPVEDLVLTGYQVDKNKDDELTGF | binds |
| Clone 82 (designed binder, His-tagged) MIPGGLSEAKPATPEIQEIVDKVKPQLEEKTGETYGKLEAVQYKTQVVFWQLHRYGFGTNYYIKVRAGDNKYMHLKVFKSLEWNRLSPLWEDLVLTGYQVDKNKDDELTGF | binds |
| Clone 227 (designed binder, His-tagged) MIPGGLSEAKPATPEIQEIVDKVKPQLEEKTGETYGKLEAVQYKTQVVYVRWHEYGFGTNYYIKVRAGDNKYMHLKVFKSLSNQLIPQPIEDLVLTGYQVDKNKDDELTGF | binds |
| Clone 212 (designed binder, His-tagged) MIPGGLSEAKPATPEIQEIVDKVKPQLEEKTGETYGKLEAVQYKTQVVYAFITPVTHGTNYYIKVRAGDNKYMHLKVFKSLWLNNFGKNFEDLVLTGYQVDKNKDDELTGF | binds |
| Clone 211 (designed binder, His-tagged) MIPGGLSEAKPATPEIQEIVDKVKPQLEEKTGETYGKLEAVQYKTQVVTHPEDAYSWGTNYYIKVRAGDNKYMHLKVFKSLLKPGGLLDFEDLVLTGYQVDKNKDDELTGF | binds |
| Clone 243 (designed binder, His-tagged) MIPGGLSEAKPATPEIQEIVDKVKPQLEEKTGETYGKLEAVQYKTQVVWKQITLPVDGTNYYIKVRAGDNKYMHLKVFKSLHWDEYEYDEEDLVLTGYQVDKNKDDELTGF | binds |
| Clone 213 (designed binder, His-tagged) MIPGGLSEAKPATPEIQEIVDKVKPQLEEKTGETYGKLEAVQYKTQVVKQHTKEWAPGTNYYIKVRAGDNKYMHLKVFKSLWNHLYHYPFEDLVLTGYQVDKNKDDELTGF | binds |
| Clone 24 (designed binder, His-tagged) MIPGGLSEAKPATPEIQEIVDKVKPQLEEKTGETYGKLEAVQYKTQVVEEGTPEWAPGTNYYIKVRAGDNKYMHLKVFKSLWSDVLYNDFEDLVLTGYQVDKNKDDELTGF | binds |
| Clone 225 (designed binder, His-tagged) MIPGGLSEAKPATPEIQEIVDKVKPQLEEKTGETYGKLEAVQYKTQVVDLHTPHYAPGTNYYIKVRAGDNKYMHLKVFKSLWNTLLEFGGEDLVLTGYQVDKNKDDELTGF | binds |
| Clone 216 (designed binder, His-tagged) MIPGGLSEAKPATPEIQEIVDKVKPQLEEKTGETYGKLEAVQYKTQVVFTEVKPFVEGTNYYIKVRAGDNKYMHLKVFKSLSWNAPFPAGEDLVLTGYQVDKNKDDELTGF | binds |
| Clone 241 (designed binder, His-tagged) MIPGGLSEAKPATPEIQEIVDKVKPQLEEKTGETYGKLEAVQYKTQVVSRLHFPNFQGTNYYIKVRAGDNKYMHLKVFKSLNLEHPTDETEDLVLTGYQVDKNKDDELTGF | binds |
| Clone 222 (designed binder, His-tagged) MIPGGLSEAEPATPEIQEIVDKVKPQLEEKTGETYGKLEAVQYKTQVVQRDHFPEFPGTNYYIKVRAGDNKYMHLKVFKSLGHELYALYAEDLVLTGYQVDKNKDDELTGF | binds |
| Clone 231 (designed binder, His-tagged) MIPGGLSEAKPATPEIQEIVDKVKPQLEEKTGETYGKLEAVQYKTQVVARWHWFHHFGTNYYIKVRAGDNKYMHLKVFKSLNPINGQETWEDLVLTGYQVDKNKDDELTGF | binds |
| Clone 237 (designed binder, His-tagged) MIPGGLSEAKPATPEIQEIVDKVKPQLEEKTGETYGKLEAVQYKTQVVVAGLKWHWEGTNYYIKVRAGDNKYMHLKVFKSLIYASQYDYREDLVLTGYQVDKNKDDELTGF | binds |
| Clone 242 (designed binder, His-tagged) MIPGGLSEAKPATPEIQEIVDKVKPQLEEKTGETYGKLEAVQYKTQVVVEWSESGYDGTNYYIKVRAGDNKYMHLKVFKSLRLKSNVNIAEDLVLTGYQVDKNKDDELTGF | binds |

Results, then the binder that gave them:

| binding result | Binder |
| --- | --- |
| binds | Clone 239 (designed binder, His-tagged) MIPGGLSEAKPATPEIQEIVDKVKPQLEEKTGETYGKLEAVQYKTQVVLTIPPTAFSGTNYYIKVRAGDNKYMHLKVFKSLGWNLHEVALEDLVLTGYQVDKNKDDELTGF |
| binds | Clone 230 (designed binder, His-tagged) MIPGGLSEAKPATPEIQEIVDKVKPQLEEKTGETYGKLEAVQYKTQVVHVSNFIIPHGTNYYIKVRAGDNKYMHLKVFKSLNWEGNDLATEDLVLTGYQVDKNKDDELTGF |
| binds | Clone 220 (designed binder, His-tagged) MIPGGLSEAKPATPEIQEIVDKVKPQLEEKTGETYGKLEAVQYKTQVVNRWNIREFEGTNYYIKVRAGDNKYMHLKVFKSLINVPVTELLEDLVLTGYQVDKNKDDELTGF |
| binds | Clone 214 (designed binder, His-tagged) MIPGGLSEAEPATPEIQEIVDKVKPQLEEKTGETYGKLEAVQYKTQVVIKIHHGSWEGTNYYIKVRAGDNKYMHLKVFKSLLFWQKQFYREDLVLTGYQVDKNKDDELTGF |
| binds | Clone 218 (designed binder, His-tagged) MIPGGLSEAKPATPEIQEIVDKVKPQLEEKTGETYGKLEAVQYKTQVVWRVYFPDFKGTNYYIKVRAGDNKYMHLKVFKSLDEVDEIPHFEDLVLTGYQVDKNKDDELTGF |
| binds | Clone 215 (designed binder, His-tagged) MIPGGLSEAKPATPEIQEIVDKVKPQLEEKTGETYGKLEAVQYKTQVVRRVFFPEFPGTNYYIKVRAGDNKYMHLKVFKSLEQPIEGDLWEDLVLTGYQVDKNKDDELTGF |
| binds | Clone 22 (designed binder, His-tagged) MIPGGLSEAKPATPEIQEIVDKVKPQLEEKTGETYGKLEAVQYKTQVVHRLHFPIYYGTNYYIKVRAGDNKYMHLKVFKSLHFTLPTQHPEDLVLTGYQVDKNKDDELTGF |
| binds | Clone 244 (designed binder, His-tagged) MIPGGLSEAKPATPEIQEIVDKVKPQLEEKTGETYGKLEAVQYKTQVVWDSEALPIDGTNYYIKVRAGDNKYMHLKVFKSLRWWPWDAVGEDLVLTGYQVDKNKDDELTGF |
| binds | Clone 229 (designed binder, His-tagged) MIPGGLSEAKPATPEIQEIVDKVKPQLEEKTGETYGKLEAVQYKTQVVHSSSKPYIHGTNYYIKVRAGDNKYMHLKVFKSLNWNRPYNDLEDLVLTGYQVDKNKDDELTGF |
| binds | Clone 210 (designed binder, His-tagged) MIPGGLSEAKPATPEIQEIVDKVKPQLEEKTGETYGKLEAVQYKTQVVWEYAGDYLEGTNYYIKVRAGDNKYMHLKVFKSLFHGIWWARVEDLVLTGYQVDKNKDDELTGF |
| binds | Clone 245 (designed binder, His-tagged) MIPGGLSEAKPATPEIQEIVDKVKPQLEEKTGETYGKLEAVQYKTQVVGYLELWKWSGTNYYIKVRAGDNKYMHLKVFKSLYNLHHPHKDEDLVLTGYQVDKNKDDELTGF |
| binds | Clone 21 (designed binder, His-tagged) MIPGGLSEAKPATPEIQEIVDKVKPQLEEKTGETYGKLEAVQYKTQVVKRPHFLQFSGTNYYIKVRAGDNKYMHLKVFKSLNIGPAKKQLEDLVLTGYQVDKNKDDELTGF |
| binds | Clone 235 (designed binder, His-tagged) MIPGGLSEAKPATPEIQEIVDKVKPQLEEKTGETYGKLEAVQYKTQVVWNPPSLPISGTNYYIKVRAGDNKYMHLKVFKSLAWDNTAKHGEDLVLTGYQVDKNKDDELTGF |
